Results on one molecule are retold here after US20110152176A1, “AGR-MEDIATED INHIBITION AND DISPERSAL OF BIOFILMS” (priority 2008, published 2011).

For one assay, the system named is SH1000 biofilm. As to the kind of experiment: Microtiter plate biofilm formation. It is filed as cell-based, Staphylococcus aureus. The settings on record: proteinase K added to SH1000 (data not shown). How it is done: (§1) Biofilm experiments. Microtiter plate biofilms were performed as described (Shanks et al., 2005) except that the plates were incubated at 37° C. with shaking at 200 rpm for 12 hours. For flow cell experiments, AIPs were generated using the DnaB intein method, and the AIP concentrations were determined as previously described (Malone et al., 2007). AIPs stocks (20 mM) were stored in 100 mM phosphate (pH 7), 50 mM NaC1, 1 mM tris(2-carboxyethyl) phosphine (TCEP) and were diluted into the biofilm flow medium to a final concentration of 50 nM. When required, […] of erythromycin and/or chloramphenicol were added to the flow cell media to maintain plasmids. The growth medium for flow cell biofilms consisted of 2% TSB plus 0.2% glucose unless otherwise indicated. Flow cell biofilm experiments and confocal microscopy were performed as previously described (Yarwood et al., 2004). Flow cells were inoculated with overnight cultures diluted 1:100 in sterile water and laminar flow (170 ml/min) was initiated after one hour incubation. […] Biofilm biomass was quantified with the COMSTAT program (Heydorn et al., 2000) and percent biomass detached was calculated by subtracting biomass present at day 4 from day 2. To quantitate the number of bacteria detaching from a biofilm, 1 ml of flow cell effluent was collected on ice at indicated time points. […]

The test system of the next assay is S. aureus SH1000 biofilm. The assay is described as follows: Flow cell biofilm detachment (CLSM, COMSTAT biomass, effluent CFU). It counts as cell-based, Staphylococcus aureus. As to conditions: SH1000 2-day biofilm, proteinase K 2 mg/mL. How it is done:
as §1, with “2004).” for “2004). Flow cells were inoculated with overnight cultures diluted 1:100 in sterile water and laminar flow (170 ml/min) was initiated after one hour incubation.”
AIP detaches S. aureus biofilms. […] To confirm that AIP-I caused detachment, the inventors counted viable S. aureus cells in the effluent media (FIG. 2C). […]

B1: proteinase K: protease enzyme (Sigma-Aldrich) suspended in water and added to the media reservoir (protein, UniProt P06873 106-384, looked up)
Proteinase K: AAQTNAPWGLARISSTSPGTSTYYYDESAGQGSCVYVIDTGIEASHPEFEGRAQMVKTYYYSSRDGNGHGTHCAGTVGSRTYGVAKKTQLFGVKVLDDNGSGQYSTIIAGMDFVASDKNNRNCPKGVVASLSLGGGYSSSVNSAAARLQSSGVMVAVAAGNNNADARNYSPASEPSVCTVGASDRYDRRSSFSNYGSVLDIFGPGTSILSTWIGGSTRSISGTSMATPHVAGLAAYLMTLGKTTAASACRYIADTANKGDLSNIPFGTVNLLAYNNYQA
In the case of B1, the “biofilm development in microtiter plate” value in the assay with SH1000 biofilm is “biofilms were unable to develop”. In addition, in the assay with S. aureus SH1000 biofilm, the “biofilm detachment observed by CLSM” value is “rapid detachment over 12 hrs”.
